Data from patent US20120058906A1 (published 2012).

T1: rHuman Erythropoietin R/Fc Chimera, CF (R&D Systems Cat#963-ER) (human, UniProt P19235 25-250)
T1 construct: Bought reagent; also called EPO R/Fc; Epo R; Fc part of the bought chimera not given
T1 sequence: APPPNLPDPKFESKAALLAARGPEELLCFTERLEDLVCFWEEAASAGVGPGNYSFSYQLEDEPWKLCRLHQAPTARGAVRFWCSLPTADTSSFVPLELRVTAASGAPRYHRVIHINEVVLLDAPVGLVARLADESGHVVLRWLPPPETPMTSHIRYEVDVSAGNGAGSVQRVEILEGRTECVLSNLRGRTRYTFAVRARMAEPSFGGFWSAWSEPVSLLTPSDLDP

T2: rHuman Erythropoietin R/Fc Chimera, CF (R&D Systems Cat#963-ER) (human, UniProt P19235 25-250)
T2 construct: Bought Fc chimera; also called EPO R/Fc; erythropoietin receptor; Fc part of the bought chimera not given
T2 sequence: T1 sequence

B1: Fab VH1-46_IGHD3-10*01_IGHJ4*01 & B3_IGKJ1*01 (Fab, V domains shown)
VH: QVQLVQSGAEVKKPGASVKVSCKASGYTFTSYYMHWVRQAPGQGLEWMGIINPSGGSTSYAQKFQGRVTMTRDTSTSTVYMELSSLRSEDTAVYYCAREYYYGSGSYYNDYFDYWGQGTLVTVSS
VL: not shown
notes: also called IGHV1-46*01
B2: Fab VH1-46_IGHD6-6*01_IGHJ1*01_S102A_S103P_S104F_H111Y & L6_IGKJ1*01 (Fab, V domains shown)
VH: QVQLVQSGAEVKKPGASVKVSCKASGYTFTSYYMHWVRQAPGQGLEWMGIINPSGGSTSYAQKFQGRVTMTRDTSTSTVYMELSSLRSEDTAVYYCAREEYAPFSAEYFQYWGQGTLVTVSS
VL: not shown
notes: Fab made in E. coli; The heavy chain also carries the CH1 with Flag and His tags of Plasmid A, and the light chain the kappa constant region of Plasmid C

Legend:
[1] = target: T3, rHuman Notch-1/Fc Chimera, CF (R&D Systems Cat#3647-TK) (human, UniProt P46531 19-526); experiment: ECL (MSD multi-spot), antigen spotted on plate; Fab 352.5 nM; blank spot 494
T3 construct: Bought reagent; Fc part of the bought chimera not given

[2] = target: T4, rHuman EGF R/Fc Chimera, CF (R&D Systems Cat#344-ER) (human, UniProt P00533 25-645); experiment: as above
T4 construct: Bought reagent; also called epidermal growth factor receptor; Fc part of the bought chimera not given

[3] = target: T5, rHuman ErbB2/Fc Chimera, CF (R&D Systems Cat#1129-ER) (human, UniProt P04626 23-652); experiment: as above
T5 construct: Bought reagent; also called HER2/neu; human epidermal growth factor 2 receptor; Fc part of the bought chimera not given

[4] = target: T6, rHuman IGF-1 sR (IGF-1 sR), CF (R&D Systems Cat#391-GR) (human, UniProt P08069 31-932); experiment: as above
T6 construct: Bought soluble receptor; also called insulin-like growth factor-1 soluble receptor; IGF-R1

[5] = target: T7, Recombinant Human DLL4 (R&D Systems Cat#1506-D4/CF) (human, UniProt Q9NR61 27-524); experiment: as above
T7 construct: Bought reagent; also called delta-like protein 4

[6] = target: T8, rHuman CD44/Fc Chimera, CF (R&D Systems Cat#3660-CD) (human, UniProt P16070 21-220); experiment: as above
T8 construct: Bought reagent; Fc part of the bought chimera not given

[7] = target: T9, rHuman P-Cadherin/Fc Chimera, CF (R&D Systems Cat#861-PC) (human, UniProt P22223 108-654); experiment: as above
T9 construct: Bought reagent; also called CDH3; Fc part of the bought chimera not given

[8] = target: T1, rHuman Erythropoietin R/Fc Chimera, CF …; experiment: as above
[9] = target: T10, rHuman HGF R/c-MET/Fc Chimera, CF (R&D Systems Cat#358-MT/CF) (human, UniProt P08581 25-932); experiment: as above
T10 construct: Bought reagent; also called HGF R/Fc; hepatocyte growth factor receptor; Fc part of the bought chimera not given

[10] = target: T11, Recombinant Human DLL4 (R&D Systems Cat#1506-D4/CF) (human, UniProt Q9NR61 27-524); experiment: ECL (MSD Multi-Spot) binding, antigen spotted on plate; Fab 0.5 nM
T11 construct: Bought recombinant protein; also called delta-like protein 4

[11] = target: T12, rHuman HGF R/c-MET/Fc Chimera, CF (R&D Systems Cat#358-MT/CF) (human, UniProt P08581 25-932); experiment: as above
T12 construct: Bought Fc chimera; also called HGF R/Fc; hepatocyte growth factor receptor; Fc part of the bought chimera not given

[12] = target: T13, rHuman EGF R/Fc Chimera, CF (R&D Systems Cat#344-ER) (human, UniProt P00533 25-645); experiment: as above
T13 construct: Bought Fc chimera; also called epidermal growth factor receptor; Fc part of the bought chimera not given

[13] = target: T14, rHuman ErbB2/Fc Chimera, CF (R&D Systems Cat#1129-ER) (human, UniProt P04626 23-652); experiment: as above
T14 construct: Bought Fc chimera; also called human epidermal growth factor 2 receptor; HER2/neu; Fc part of the bought chimera not given

[14] = target: T15, rHuman Notch-1/Fc Chimera, CF (R&D Systems Cat#3647-TK) (human, UniProt P46531 19-526); experiment: as above
T15 construct: Bought Fc chimera; Fc part of the bought chimera not given

[15] = target: T16, rHuman CD44/Fc Chimera, CF (R&D Systems Cat#3660-CD) (human, UniProt P16070 21-220); experiment: as above
T16 construct: Bought Fc chimera; Fc part of the bought chimera not given

[16] = target: T17, rHuman IGF-1 sR, CF (R&D Systems Cat#391-GR) (human, UniProt P08069 31-932); experiment: as above
T17 construct: Bought soluble receptor; also called insulin-like growth factor-1 soluble receptor; IGF-R1

[17] = target: T18, rHuman P-Cadherin/Fc Chimera, CF (R&D Systems Cat#861-PC) (human, UniProt P22223 108-654); experiment: as above
T18 construct: Bought Fc chimera; Fc part of the bought chimera not given

[18] = target: T2, rHuman Erythropoietin R/Fc Chimera, CF …; experiment: as above
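Further: blank spot per well as comparator with Hit at signal to blank ratio of 4 or more.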

Row | Binder | ECL signal [1] | ECL signal [2] | ECL signal [3] | ECL signal [4] | ECL signal [5] | ECL signal [6] | ECL signal [7] | ECL signal [8] | ECL signal [9] | ECL signal [10] | ECL signal [11] | ECL signal [12] | ECL signal [13] | ECL signal [14] | ECL signal [15] | ECL signal [16] | ECL signal [17] | ECL signal [18]
1 | B1 | 715 | 769 | 514 | 528 | 660 | 556 | 649 | 4100 | 606 |  |  |  |  |  |  |  |  | 
2 | B2 |  |  |  |  |  |  |  |  |  | 2970 | 319 | 273 | 331 | 263 | 279 | 164 | 215 | 359
